In series [1] the target is T1, eIF4GI557-1599;eIF4A (human;human?, UniProt Q04637;P60842 557-1599;1-406, |). Briefly: fluorescence anisotropy; mRNA pre-bound by eIF4E•4E-BP1; 20 mM HEPES-KOH pH 7.5, 200 mM KCl, 1 mM MgCl2, 25 °C; 10 nM labeled mRNA; pre-assembly with 0.5 uM eIF4E and 1 uM 4E-BP1. Conditions: protein: recombinant;recombinant, tags: N-terminal 6xHis, TEV-cleaved;N-terminal His-MBP, copies: 1;1, label: 3' fluorescein, structured 5'UTR. For orientation: Fluorescence polarisation rises when a labelled molecule tumbles more slowly, as on binding a larger partner.
T1 sequence (Q04637 557-1599, chain 1 of 2): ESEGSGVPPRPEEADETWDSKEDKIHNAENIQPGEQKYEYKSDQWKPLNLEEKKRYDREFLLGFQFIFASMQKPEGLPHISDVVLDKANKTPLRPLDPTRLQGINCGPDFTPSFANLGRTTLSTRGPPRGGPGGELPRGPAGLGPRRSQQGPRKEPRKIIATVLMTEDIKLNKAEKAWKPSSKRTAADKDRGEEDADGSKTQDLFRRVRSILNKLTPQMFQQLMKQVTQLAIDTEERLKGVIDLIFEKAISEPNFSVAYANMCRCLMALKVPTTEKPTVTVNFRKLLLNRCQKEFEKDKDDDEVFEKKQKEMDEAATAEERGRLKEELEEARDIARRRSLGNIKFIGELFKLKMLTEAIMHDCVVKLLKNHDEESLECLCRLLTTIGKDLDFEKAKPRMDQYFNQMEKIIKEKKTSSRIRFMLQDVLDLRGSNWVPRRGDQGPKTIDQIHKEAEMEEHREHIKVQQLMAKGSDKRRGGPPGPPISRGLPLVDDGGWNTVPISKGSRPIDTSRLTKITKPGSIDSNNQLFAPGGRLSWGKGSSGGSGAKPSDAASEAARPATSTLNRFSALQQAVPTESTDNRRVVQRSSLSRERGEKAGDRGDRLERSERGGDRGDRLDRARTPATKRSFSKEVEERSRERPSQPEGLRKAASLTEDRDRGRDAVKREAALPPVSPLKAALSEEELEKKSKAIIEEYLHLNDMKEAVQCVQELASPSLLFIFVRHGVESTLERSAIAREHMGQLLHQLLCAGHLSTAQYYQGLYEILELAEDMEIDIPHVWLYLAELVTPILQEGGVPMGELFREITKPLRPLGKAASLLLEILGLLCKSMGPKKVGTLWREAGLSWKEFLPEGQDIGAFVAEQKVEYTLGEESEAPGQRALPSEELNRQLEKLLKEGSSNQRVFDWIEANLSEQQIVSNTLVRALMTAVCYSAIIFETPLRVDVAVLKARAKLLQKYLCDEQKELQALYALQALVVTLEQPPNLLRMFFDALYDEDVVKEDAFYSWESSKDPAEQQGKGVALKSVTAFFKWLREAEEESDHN
T1 sequence (P60842 whole entry, chain 2 of 2): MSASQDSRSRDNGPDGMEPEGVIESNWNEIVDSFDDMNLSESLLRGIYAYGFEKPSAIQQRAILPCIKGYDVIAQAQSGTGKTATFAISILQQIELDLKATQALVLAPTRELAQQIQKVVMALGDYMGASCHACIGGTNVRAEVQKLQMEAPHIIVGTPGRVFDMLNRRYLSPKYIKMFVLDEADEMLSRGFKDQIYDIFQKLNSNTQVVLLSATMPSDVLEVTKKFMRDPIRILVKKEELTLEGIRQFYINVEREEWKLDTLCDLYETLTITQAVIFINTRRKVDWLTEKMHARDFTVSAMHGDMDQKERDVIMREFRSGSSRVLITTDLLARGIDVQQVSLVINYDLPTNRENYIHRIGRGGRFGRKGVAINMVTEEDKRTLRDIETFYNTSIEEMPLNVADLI

In series [2] the target is T2, eIF4GI557-1599 (human, UniProt Q04637 557-1599). The series is described as above. Conditions: protein: recombinant; tags: N-terminal 6xHis, TEV-cleaved; label: 3' fluorescein; structured 5'UTR.
T2 sequence (Q04637 557-1599): as the sequence (Q04637 557-1599, chain 1 of 2) above
The target of the next series is eIF4E (human, UniProt P06730 1-217). Briefly: fluorescence anisotropy; 20 mM HEPES-KOH pH 7.5, 200 mM KCl, 1 mM MgCl2, 25 °C; 10 nM labeled mRNA; pre-assembly with 0.5 uM eIF4E and 1 uM 4E-BP1. Conditions: protein: recombinant; tags: N-terminal polyHis, TEV-cleaved; label: 3' fluorescein; structured 5'UTR.
eIF4E, sequence (P06730 whole entry): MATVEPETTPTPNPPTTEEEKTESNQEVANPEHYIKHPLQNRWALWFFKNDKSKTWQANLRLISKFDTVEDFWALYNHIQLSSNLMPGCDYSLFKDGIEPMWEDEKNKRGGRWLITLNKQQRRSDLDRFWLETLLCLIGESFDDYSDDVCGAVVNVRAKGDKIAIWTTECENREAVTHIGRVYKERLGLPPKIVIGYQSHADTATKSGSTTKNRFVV
The target of a further series is eIF4E;4E-BP1 (human;human, UniProt P06730;Q13541 1-217;1-118, |). The description is as above. Conditions: protein: recombinant;recombinant, tags: N-terminal polyHis, TEV-cleaved;N-terminal 6xHis, copies: 1;1, label: 3' fluorescein, structured 5'UTR.
eIF4E;4E-BP1, sequence (P06730 whole entry, chain 1 of 2): as the sequence (P06730 whole entry) above
eIF4E;4E-BP1, sequence (Q13541 whole entry, chain 2 of 2): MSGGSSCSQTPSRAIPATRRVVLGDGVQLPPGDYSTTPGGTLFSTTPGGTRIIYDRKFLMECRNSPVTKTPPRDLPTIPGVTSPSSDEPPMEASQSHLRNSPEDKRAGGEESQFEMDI
Series [3] concerns the target T2, eIF4GI557-1599. The series is described as above. Conditions: protein: recombinant; tags: N-terminal 6xHis, TEV-cleaved; label: 3' fluorescein; structured 5'UTR.
The target in another series is 4E-BP1 (human, UniProt Q13541 1-118). The series is described as above. Conditions: protein: recombinant; tags: N-terminal 6xHis, TEV-cleaved; label: 3' fluorescein; structured 5'UTR.
4E-BP1, sequence (Q13541 whole entry): as the sequence (Q13541 whole entry, chain 2 of 2) above
For series [4], the target named is T1, eIF4GI557-1599;eIF4A. The series is described as follows: fluorescence anisotropy; ATP; mRNA pre-bound by eIF4E•4E-BP1; 20 mM HEPES-KOH pH 7.5, 200 mM KCl, 1 mM MgCl2, 25 °C; 10 nM labeled mRNA; pre-assembly with 0.5 uM eIF4E and 1 uM 4E-BP1. Conditions: protein: recombinant;recombinant, tags: N-terminal 6xHis, TEV-cleaved;N-terminal His-MBP, copies: 1;1, label: 3' fluorescein, structured 5'UTR.

Series [5] deals with T2, eIF4GI557-1599. The series is described as follows: fluorescence anisotropy; mRNA pre-bound by eIF4E•FITC-4E-BP1 peptide (label on peptide); text gives error 0.7; 20 mM HEPES-KOH pH 7.5, 200 mM KCl, 1 mM MgCl2, 25 °C; 10 nM labeled mRNA; pre-assembly with 0.5 uM eIF4E and 1 uM 4E-BP1. Conditions: protein: recombinant; tags: N-terminal 6xHis, TEV-cleaved; label: 3' fluorescein; structured 5'UTR.

One may read the Kd as the equilibrium constant for the complex coming apart.

B1: ApppG p53B 5'UTR (structured_RNA)
RNA: AUGGAGGAGCCGCAGUCAGAUCCUAGCGUCGAGCCCCCUCUGAGUCAGGAAACAUUUUCAGACCUAUGGAAACUACUUCCUGAAAACAACGUUCUGUCCCCCUUGCCGUCCCAAGCA
modifications: 5' ApppG cap (non-functional)
Regarding B1, the dissociation constant Kd in the series with eIF4GI557-1599;eIF4A [1] amounted to 28 ± 1.8 nM; in the series with eIF4GI557-1599 [2] it was 22 ± 0.8 nM; with eIF4E, 159 ± 4.2 nM; with eIF4E;4E-BP1 it was 89 ± 3.5 nM; in the series with eIF4GI557-1599 [3], 66 ± 1.7 nM; in the series with eIF4GI557-1599;eIF4A [4], 21 ± 1.1 nM. In addition, in the series with eIF4GI557-1599 [5], the Kd was found to be 42 ± 2 nM. Also, in the series with 4E-BP1, the binding result is given as “no binding”.
